{"source": "patent US7803572B2", "about": "“Protease detection assay” (Atlas Genetics, Ltd., priority 2003, dated 2010)", "key": {"porcine pancreas trypsin": {"target": "T1, porcine pancreas trypsin (Sus scrofa, UniProt P00761)", "T1 construct": "purchased Sigma; host or cells: porcine pancreas", "T1 sequence (P00761 9-231)": "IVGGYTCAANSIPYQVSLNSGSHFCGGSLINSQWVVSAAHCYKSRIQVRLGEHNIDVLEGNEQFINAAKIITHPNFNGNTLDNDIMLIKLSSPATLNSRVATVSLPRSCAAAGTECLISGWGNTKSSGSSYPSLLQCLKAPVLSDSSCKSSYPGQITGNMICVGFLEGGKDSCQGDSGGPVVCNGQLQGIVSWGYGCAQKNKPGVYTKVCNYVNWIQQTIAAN", "assay": "Effect of a protease inhibitor on electrochemical marker signal (trypsin digestion of Fc-BSA)", "assay_type": "biochemical", "settings": "reaction (i): no inhibitor added", "protocol": "(§1) Protease assays were performed as follows unless stated otherwise. […] Samples were incubated at 37° C. for 1 hour.\nFive digestions of Fc-BSA with trypsin were carried out using the protocol described above. In addition, soybean trypsin inhibitor was added to reaction mixtures […]. Solutions of the soybean trypsin inhibitor were prepared by resuspending inhibitor as supplied in deionised water to a concentration of 10 mg/ml and 1 mg/ml as appropriate. No inhibitor was added to reaction (i); 0.5 μl of 1 mg/ml inhibitor solution was added to reaction (ii); […] of 10 mg/ml inhibitor was added to reaction (iii); 5 μl of 10 mg/ml inhibitor solution was added to reaction (iv) and 5 μl of 10 mg/ml inhibitor solution was added to a no-trypsin control reaction. The differential pulse voltammogram results are shown in FIG. 16 with baseline correction."}, "elastase": {"system": "elastase", "assay": "Digestion of Fc-BSA with elastase, differential pulse voltammetry", "assay_type": "biochemical", "protocol": "as §1\nA digestion of Fc-BSA with elastase was carried out as described above. […] The positive reaction has a peak position of 430 mV and a peak height of 2.57×10^−7 A; the no elastase control reaction has a peak position of 432 mV and a peak height of 2.55×10^−8 A."}, "[1]": {"target": "Bacillus thermoproteolyticus rokko thermolysin (Bacillus thermoproteolyticus, UniProt P00800)", "sequence (P00800 233-548)": "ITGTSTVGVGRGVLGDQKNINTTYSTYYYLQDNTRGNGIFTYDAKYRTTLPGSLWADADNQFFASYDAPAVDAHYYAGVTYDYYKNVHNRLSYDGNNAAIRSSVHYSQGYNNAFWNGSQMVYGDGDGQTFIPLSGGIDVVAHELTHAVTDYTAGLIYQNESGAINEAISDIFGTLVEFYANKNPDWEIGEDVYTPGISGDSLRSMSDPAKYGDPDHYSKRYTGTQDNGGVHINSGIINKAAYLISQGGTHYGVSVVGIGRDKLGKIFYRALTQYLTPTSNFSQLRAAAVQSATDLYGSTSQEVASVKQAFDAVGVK", "settings": "for peak: no-thermolysin control reaction; for peak height / peak position: positive reaction", "protocol": "The low volume cell of FIG. 1 was filled with approximately 10 ml sodium chloride solution (100 mM). A 200 μl aliquot of the sample for analysis was placed in the glass sample chamber which was then placed in the low volume cell along with the reference and counter electrodes. The electrodes were connected to the AUTOLAB electrochemical workstation and differential pulse voltammetry carried out using the parameters described in Table 1. Prior to analysis the glassy carbon working electrode was polished (using BAS polishing kit catalogue number MF-2060) followed by conditioning. Electrode conditioning consists of cyclic voltammetry, sweeping between +−1 volt in the appropriate background buffer.\nProtease assays were performed as follows unless stated otherwise. Lyophilised enzymes were re-suspended to give a concentration of 10 mgml^−1. Enzymes were resuspended in the following solutions: HCl (1 mM, pH 3.0) (trypsin, α-chymotrypsin, pepsin), NaCl (100 mM) (proteinase K, elastase, papain, carboxypeptidase, thermolysin). 75 μl of Fc-BSA solution (0.3-0.6 mgml^−1) was used per reaction. Each reaction was carried out in a total volume of 200 μl and the reactions were performed in the following buffers (final concentrations are given): 100 mM tris HCl pH7.8 (trypsin, α-chymotrypsin, thermolysin, proteinase K); 100 mM tris HCl pH 8.5 (elastase); 200 mM sodium acetate, 200 mM cysteine, 20 mM EDTA (papain); 10 mM HCl pH 2.0 (pepsin); 25 mM tris HCl pH7.5, 500 mM NaCl (carboxypeptidase). 2 μl enzyme (10 mgml^−1) was added to the […] reaction mixture. Samples were incubated at 37° C. for 1 hour. The reaction products were analysed by differential pulse voltammetry as described in Example 1.\nBaseline corrected data was obtained using GPES MANAGER (Ecochemie BV, Utrecht, Netherlands) selecting baseline correction from the edit data menu, selecting moving average, minimum peak width 0.003V.\nA digestion of Fc-BSA with thermolysin was carried out as described above with the digestion incubation at 37° C.\nA digestion of Fc-BSA with thermolysin was carried out as described above with the digestion incubation at 70° C."}, "carboxypeptidase": {"system": "carboxypeptidase", "assay": "Digestion of Fc-BSA with carboxypeptidase, differential pulse voltammetry", "assay_type": "biochemical", "protocol": "as §1\nA digestion of Fc-BSA with carboxypeptidase was carried out as described above. […] The positive reaction has a peak position of 435 mV and a peak height of 1.31×10^−7 A; the no elastase control reaction has a peak position of 427 mV and a peak height of 6.86×10^−8 A."}, "[2]": {"target": "T2, porcine stomach mucosa pepsin (Sus scrofa, UniProt P00791)", "T2 construct": "purchased Sigma; host or cells: porcine stomach mucosa", "T2 sequence (P00791 60-385)": "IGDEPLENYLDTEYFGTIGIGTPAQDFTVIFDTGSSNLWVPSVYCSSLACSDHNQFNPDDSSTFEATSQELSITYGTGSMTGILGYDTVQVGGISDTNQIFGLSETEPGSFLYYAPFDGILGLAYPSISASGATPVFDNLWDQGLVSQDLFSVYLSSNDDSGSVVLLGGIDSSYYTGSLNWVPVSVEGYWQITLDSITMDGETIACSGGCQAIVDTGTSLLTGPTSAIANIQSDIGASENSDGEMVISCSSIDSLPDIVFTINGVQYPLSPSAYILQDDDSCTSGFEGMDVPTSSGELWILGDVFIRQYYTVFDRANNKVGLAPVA", "assay": "Digestion of Fc-BSA with pepsin, differential pulse voltammetry", "assay_type": "biochemical", "protocol": "as §1\nA digestion of Fc-BSA with pepsin was carried out as described above. […] The positive reaction has a peak position of 537 mV and a peak height of 8.90×10^−8 A; the no-pepsin control reaction has a peak position of 522 mV and a peak height of 4.19×10^−8 A."}, "[3]": {"settings": "positive reaction, 10 mM HCl pH 2.0, 37° C. for 1 hour"}}, "note": "Read-outs that look alike come from different tables or passages of the source.", "data": [{"substance": "Fc-BSA: Bovine serum albumin labelled with ferrocene methanoyl groups via N-hydroxysuccinimide ester; estimated 10 to 20 ferrocenes per BSA", "values": [{"measurement": "peak height", "setting": "porcine pancreas trypsin", "value": "2.56×10^−7 A"}, {"measurement": "peak position", "setting": "porcine pancreas trypsin", "value": 439, "unit": "mV"}, {"measurement": "peak height", "setting": "elastase; no elastase control reaction", "value": "2.55×10^−8 A"}, {"measurement": "peak height", "setting": "elastase; positive reaction, tris HCl pH 8.5, 37° C. for 1 hour", "value": "2.57×10^−7 A"}, {"measurement": "peak", "setting": "[1]; 37° C.", "value": "no peak was found"}, {"measurement": "peak", "setting": "[1]; 70° C.", "value": "no peak was found"}, {"measurement": "peak height", "setting": "[1]; digestion incubation at 37° C.", "value": "1.62×10^−8 A"}, {"measurement": "peak position", "setting": "[1]; digestion incubation at 37° C.", "value": 429, "unit": "mV"}, {"measurement": "peak height", "setting": "[1]; digestion incubation at 70° C.", "value": "2.0×10^−8 A"}, {"measurement": "peak position", "setting": "[1]; digestion incubation at 70° C.", "value": 455, "unit": "mV"}, {"measurement": "peak height", "setting": "carboxypeptidase; no elastase control reaction (so in the source)", "value": "6.86×10^−8 A"}, {"measurement": "peak height", "setting": "carboxypeptidase; positive reaction, 37° C. for 1 hour", "value": "1.31×10^−7 A"}, {"measurement": "peak height", "setting": "[2]; no-pepsin control reaction", "value": "4.19×10^−8 A"}, {"measurement": "peak position", "setting": "[2]; no-pepsin control reaction", "value": 522, "unit": "mV"}, {"measurement": "peak height", "setting": "[2]; [3]", "value": "8.90×10^−8 A"}, {"measurement": "peak position", "setting": "[2]; [3]", "value": 537, "unit": "mV"}]}]}
